Legend:
[1] = molecular target: Purified MDM2 (1-125) protein (human MDM2 1-125 sequence comprising a modified TEV cleavage site, pNIC-GST fusion) (human) (UniProt Q00987); experiment: competitive fluorescence anisotropy (FP) against FAM-labeled 12/1 peptide on MDM2 (1-125); apparent Kd
[2] = molecular target: MDM2 (in HCT116 cells) (human) (UniProt Q00987); experiment: cell-based or functional assay

Sequence of Purified MDM2 (1-125) protein (human MDM2 1-125 sequence comprising a modified TEV cleavage site, pNIC-GST fusion) (human) (Q00987 1-125 limits assumed): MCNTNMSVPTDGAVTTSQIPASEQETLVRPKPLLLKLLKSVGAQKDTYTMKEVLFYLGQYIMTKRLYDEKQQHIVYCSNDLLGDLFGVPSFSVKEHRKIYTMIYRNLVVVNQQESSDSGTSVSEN

Kd [1] [nM] | p53 activity EC50 (µM) (0% FBS, 4 h) [2] | p53 activity EC50 (µM) (10% FBS, 16 h) [2] | Substance
0.43 |  |  | Acetyl-^DPMI-δ-(6-10 olefin staple) (D-K9D-Q, D-R12D-S, 3x(D-Ala)-(D-Glu)-2x(D-Ala) polypeptide tail)-NH2
3.1 |  |  | Acetyl-^DPMI-δ-(6-10 olefin staple) (D-K9D-Q, D-R12D-S, 3x(D-A) polypeptide tail)-NH2
258 |  |  | Acetyl-^DPMI-δ-(6-10 olefin staple) (D-K9D-Q, D-R12D-S)-NH2 (peptide)
33.9 | 13.6 | 30.8 | ^DPMI-δ-(5-12 olefin staple)-NH2 (peptide)
118 |  |  | ^DPMI-δ-(6-10 olefin staple)-NH2 (peptide)
30 |  |  | Acetyl-^DPMI-δ-(6-10 olefin staple) (D-K9D-Q, D-R12D-S) (D-A)-(D-F)-(D-A)-(D-Ala)-(D-A)-(D-A) polypeptide tail)-NH2
